Broadly, the Kd is the free concentration of one partner at which half of the binding sites on the other are occupied at equilibrium, for simple one-to-one binding. As usually defined, the koff is the rate constant with which the complex falls apart. Broadly, the kon is the rate constant with which the complex forms. Broadly, the EC50 is the midpoint of the concentration-response curve.

For experiment [1], the target named is recombinant hGPC3-His (human) (UniProt P51654). Kind of experiment: Biacore SPR, antibody captured, hGPC3-His analyte, 1:1 model. (In general: In SPR one partner is held on a chip, and binding of the other changes the refractive index at the surface.)
Sequence of UniProt P51654 (P51654 25-559): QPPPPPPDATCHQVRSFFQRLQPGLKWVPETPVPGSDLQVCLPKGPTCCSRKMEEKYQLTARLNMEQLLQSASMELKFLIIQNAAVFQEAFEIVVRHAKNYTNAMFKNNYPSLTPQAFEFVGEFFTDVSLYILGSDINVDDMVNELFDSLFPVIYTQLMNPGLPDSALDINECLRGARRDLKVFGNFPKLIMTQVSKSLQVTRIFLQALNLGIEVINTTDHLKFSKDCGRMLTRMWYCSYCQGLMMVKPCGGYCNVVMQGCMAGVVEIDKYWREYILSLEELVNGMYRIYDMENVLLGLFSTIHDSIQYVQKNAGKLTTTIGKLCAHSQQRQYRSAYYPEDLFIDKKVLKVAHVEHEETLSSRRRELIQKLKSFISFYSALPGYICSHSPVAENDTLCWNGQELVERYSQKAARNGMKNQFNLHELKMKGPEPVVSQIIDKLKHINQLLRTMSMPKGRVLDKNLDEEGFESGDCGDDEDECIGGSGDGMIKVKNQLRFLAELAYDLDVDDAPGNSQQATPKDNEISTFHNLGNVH
Experiment [2] has as its target recombinant human GPC3 protein (R&D Systems) (human) (UniProt P51654). Kind of experiment: binding ELISA on plate-coated recombinant hGPC3, detection with goat anti-human Fc secondary antibody and TMB.
For experiment [3] the target is unchanged. The experiment in a line: Octet (BLI) off-rate ranking of scFv. In general terms: In BLI a coated tip is dipped into the sample, and binding shifts an interference pattern.
The target is the same in experiment [4]. The experiment in a line: ELISA, plate-coated recombinant hGPC3, IgG detected with anti-human Fc. Background: An ELISA detects its analyte on a solid surface through an enzyme-linked reagent.
Experiment [5] has as its target recombinant hGPC3-His (human) (UniProt P51654). The experiment in a line: Biacore SPR, antibody captured, hGPC3-His analyte, 1:1 model; reference ARD-103 IgG.

B1: ARD-103 antibody (IgG) (antibody, V domains shown)
VH: QVQLVESGAEVKKPGASVKVSCKASGYTFTDYEMHWVRQAPGQGLEWMGALDPKTGDTAYSQKFKGRVTLTADKSTSTAYMELSSLTSEDTAVYYCTRFYSYTYWGQGTLVTVSS
VL: DVVMTQSPLSLPVTPGEPASISCRSSQSLVHSNGNTYLHWYLQKPGQSPQLLIYKVSNRFSGVPDRFSGSGSGTDFTLKISRVEAEDVGVYYCSQNTHVPPTFGQGTKLEIKR
Consider B1, for which, in experiment [1], the Kd is 3.85 nM, the koff came out at 0.000185 s⁻¹ and the on-rate (kon) came to 48100 M⁻¹ s⁻¹. In experiment [2], the half-maximal effective concentration (EC50) was determined as 0.11 nM.

B2: P3-A1 scFv clone (scFv, part only; not given: linker, domain order, tags, V domains shown, not shown: another chain or arm of the molecule; large carriers; small tags and cut ends)
VH: QVQLVESGAEVKKPGASVKVSCKASGYTFTDYEMHWVRQAPGQGLEWMGALDPSTGDTAYSQKFKGRVTLTADKSTSTAYMELSSLTSEDTAVYYCTRFYSYTYWGQGTLVTVSS
VL: DVVMTQSPLSLPVTPGEPASISCRSSQSLVHWNGNTYLHWYLQKPGQSPQLLIYKVSNRFSGVPDRFSGSGSGTDFTLKISRVEAEDVGVYYCAQNTHVPPTFGQGTKLEIK
In the case of B2, in experiment [3], the koff came out at 0.000304 s⁻¹.

B3: P3-F7 scFv clone (scFv, part only; not given: linker, domain order, tags, V domains shown, not shown: another chain or arm of the molecule; small tags and cut ends)
VH: QVQLVESGAEVKKPGASVKVSCKASGYTFTDYEMHWVRQAPGQGLEWMGALDPKTGDTAYSQKFKGRVTLTADKSTSTAYMELSSLTSEDTAVYYCTRFYSYTYWGQGTLVTVSS
VL: DVVMTQSPLSLPVTPGEPASISCRSSQSLVHSNGNTYLQWYLQKPGQSPQLLIYKVSNRFSGVPDRFSGSGSGTDFTLKISRVEAEDVGVYYCVQVTHVPPTFGQGTKLEIK
For B3, the off-rate (koff) in experiment [3] amounted to 0.000319 s⁻¹.

B4: P1-B9 IgG variant of ARD-103 (antibody, V domains shown)
VH: QVQLVESGAEVKKPGASVKVSCKASGYTFTDYEMHWVRQAPGQGLEWMGALDPKTGDTALSQKFKGRVTLTADKSTSTAYMELSSLTSEDTAVYYCTRFYSYTYWGQGTLVTVSS
VL: DVVMTQSPLSLPVTPGEPASISCRSSQSLVHSNGNTYLQWYLQKPGQSPQLLIYKVSNRFSGVPDRFSGSGSGTDFTLKISRVEAEDVGVYYCGQVTHVPPTFGQGTKLEIKR
With B4, in experiment [1], the dissociation constant (Kd) is 3.33 nM, the koff turned out to be 0.00026 s⁻¹ and the kon came out at 78000 M⁻¹ s⁻¹. The EC50 in experiment [4] was found to be 0.1 nM. In addition, the EC50 in experiment [2] was 0.095 nM.

B5: P3-F7 IgG variant of ARD-103 (antibody, V domains shown)
VH: QVQLVESGAEVKKPGASVKVSCKASGYTFTDYEMHWVRQAPGQGLEWMGALDPKTGDTAYSQKFKGRVTLTADKSTSTAYMELSSLTSEDTAVYYCTRFYSYTYWGQGTLVTVSS
VL: DVVMTQSPLSLPVTPGEPASISCRSSQSLVHSNGNTYLQWYLQKPGQSPQLLIYKVSNRFSGVPDRFSGSGSGTDFTLKISRVEAEDVGVYYCVQVTHVPPTFGQGTKLEIKR
Consider B5, for which, in experiment [1], the Kd was 8.46 nM, the koff amounted to 0.000724 s⁻¹ and the kon is 85600 M⁻¹ s⁻¹. For the same molecule, the EC50 in experiment [4] worked out at 0.1 nM. Also, in experiment [2], the EC50 worked out at 0.1 nM.

B6: P1-E6 scFv clone (scFv, part only; not given: linker, domain order, tags, V domains shown, not shown: another chain or arm of the molecule; large carriers; small tags and cut ends)
VH: QVQLVESGAEVKKPGASVKVSCKASGYTFTDYEMHWVRQAPGQGLEWMGALDPKTGDTALSQKFKGRVTLTADKSTSTAYMELSSLTSEDTAVYYCTRFYSYTYWGQGTLVTVSS
VL: DVVMTQSPLSLPVTPGEPASISCRSSSSLVHSNGNTYLHWYLQKPGQSPQLLIYKVSNRFSGVPDRFSGSGSGTDFTLKISRVEAEDVGVYYCLQNGIVPPTFGQGTKLEIK
Turning to B6, in experiment [3], the koff is 0.00048 s⁻¹.

B7: P1-A1 IgG variant of ARD-103 (antibody, V domains shown)
VH: QVQLVESGAEVKKPGASVKVSCKASGYTFTDYEMHWVRQAPGQGLEWMGALDPKTGDTAYSQKFQGRVTLTADKSTSTAYMELSSLTSEDTAVYYCTRFYSYTYWGQGTLVTVSS
VL: DVVMTQSPLSLPVTPGEPASISCRSSQSLVRSNGNTYLHWYLQKPGQSPQLLIYKVSNRFSGVPDRFSGSGSGTDFTLKISRVEAEDVGVYYCVQNTHVPPTFGQGTKLEIKR
In the case of B7, in experiment [1], the Kd stood at 1.56 nM, the koff stood at 0.000172 s⁻¹ and the association rate constant (kon) amounted to 110000 M⁻¹ s⁻¹.

B8: P1-G5 scFv clone (scFv, part only; not given: linker, domain order, tags, V domains shown, not shown: another chain or arm of the molecule; large carriers; small tags and cut ends)
VH: QVQLVESGAEVKKPGASVKVSCKASGYTFTDYEMHWVRQAPGQGLEWMGAIDPKTGDTAYSQKFKGRVTLTADKSTSTAYMELSSLTSEDTAVYYCTRFYSYTYWGQGTLVTVSS
VL: DVVMTQSPLSLPVTPGEPASISCRSSQSLVHSNGNTYLQWYLQKPGQSPQLLIYKVSNRFSGVPDRFSGSGSGTDFTLKISRVEAEDVGVYYCSQVTHVPPTFGQGTKLEIK
As for B8, the off-rate (koff) in experiment [3] amounted to 0.000197 s⁻¹.

B9: P1-B9 scFv clone (scFv, part only; not given: linker, domain order, tags, V domains shown, not shown: another chain or arm of the molecule; large carriers; small tags and cut ends)
VH: QVQLVESGAEVKKPGASVKVSCKASGYTFTDYEMHWVRQAPGQGLEWMGALDPKTGDTALSQKFKGRVTLTADKSTSTAYMELSSLTSEDTAVYYCTRFYSYTYWGQGTLVTVSS
VL: DVVMTQSPLSLPVTPGEPASISCRSSQSLVHSNGNTYLQWYLQKPGQSPQLLIYKVSNRFSGVPDRFSGSGSGTDFTLKISRVEAEDVGVYYCGQVTHVPPTFGQGTKLEIK
For the molecule B9, the koff in experiment [3] worked out at 0.00027 s⁻¹.

B10: P1-E6 IgG variant of ARD-103 (antibody, V domains shown)
VH: QVQLVESGAEVKKPGASVKVSCKASGYTFTDYEMHWVRQAPGQGLEWMGALDPKTGDTALSQKFKGRVTLTADKSTSTAYMELSSLTSEDTAVYYCTRFYSYTYWGQGTLVTVSS
VL: DVVMTQSPLSLPVTPGEPASISCRSSSSLVHSNGNTYLHWYLQKPGQSPQLLIYKVSNRFSGVPDRFSGSGSGTDFTLKISRVEAEDVGVYYCLQNGIVPPTFGQGTKLEIKR
As for B10, in experiment [1], the Kd came out at 3.95 nM, the koff was found to be 0.000299 s⁻¹ and the kon worked out at 75600 M⁻¹ s⁻¹.

B11: P6-D11 scFv clone (scFv, part only; not given: linker, domain order, tags, V domains shown, not shown: another chain or arm of the molecule; large carriers; small tags and cut ends)
VH: QVQLVQSGAEVKKPGASVKVSCKASGYTFTDYEMHWVRQAPGQGLEWMGALDPKTGDEAYSQKFKGRVTLTADKSTSTAYMELSSLTSEDTAVYYCTRFYSYTYWGQGTLVTVSS
VL: DVVMTQSPLSLPVTPGEPASISCRSEQSLVHSNGNTYLHWYLQKPGQSPQLLIYKVSNRFSGVPDRFSGSGSGTDFTLKISRVEAEDVGVYYCVQNGLFPPTFGQGTKLEIK
As for B11, the koff in experiment [3] was determined as 0.000122 s⁻¹.

B12: P1-D6 scFv clone (scFv, part only; not given: linker, domain order, tags, V domains shown, not shown: another chain or arm of the molecule; large carriers; small tags and cut ends)
VH: QVQLVQSGAEVKNPGASVKVSCKASGYTFTDYEMHWVRQAPGQGLEWMGALDPFTGDTAYSQKFKGRVTLTADKSTSTAYMELSSLTSEDTAVYYCTRFYSYTYWGQGTLVTVSS
VL: DVVMTQSPLSLPVTPGEPASISCRSSQSLVHSNGNTYLHWYLQKPGQSPQLLIYKVSNRFSGVPDRFSGSGSGTDFTLKISRVEAEDVGVYYCLQNGYVPPTFGQGTKLEIK
Consider B12, for which, in experiment [3], the off-rate (koff) stood at 0.000193 s⁻¹.

B13: P1-A1 scFv clone (scFv, part only; not given: linker, domain order, tags, V domains shown, not shown: another chain or arm of the molecule; large carriers; small tags and cut ends)
VH: QVQLVESGAEVKKPGASVKVSCKASGYTFTDYEMHWVRQAPGQGLEWMGALDPKTGDTAYSQKFQGRVTLTADKSTSTAYMELSSLTSEDTAVYYCTRFYSYTYWGQGTLVTVSS
VL: DVVMTQSPLSLPVTPGEPASISCRSSQSLVRSNGNTYLHWYLQKPGQSPQLLIYKVSNRFSGVPDRFSGSGSGTDFTLKISRVEAEDVGVYYCVQNTHVPPTFGQGTKLEIK
With B13, the off-rate constant (koff) in experiment [3] is 0.0003 s⁻¹.

B14: P1-G5 IgG variant of ARD-103 (antibody, V domains shown)
VH: QVQLVESGAEVKKPGASVKVSCKASGYTFTDYEMHWVRQAPGQGLEWMGAIDPKTGDTAYSQKFKGRVTLTADKSTSTAYMELSSLTSEDTAVYYCTRFYSYTYWGQGTLVTVSS
VL: DVVMTQSPLSLPVTPGEPASISCRSSQSLVHSNGNTYLQWYLQKPGQSPQLLIYKVSNRFSGVPDRFSGSGSGTDFTLKISRVEAEDVGVYYCSQVTHVPPTFGQGTKLEIKR
For the molecule B14, in experiment [1], the dissociation constant (Kd) came to 4.15 nM, the koff was found to be 0.000326 s⁻¹ and the kon was found to be 78500 M⁻¹ s⁻¹. Besides, the EC50 in experiment [4] is 0.1 nM. Besides, the EC50 in experiment [2] amounted to 0.095 nM.

B15: P6-D11 IgG variant of ARD-103 (antibody, V domains shown)
VH: QVQLVQSGAEVKKPGASVKVSCKASGYTFTDYEMHWVRQAPGQGLEWMGALDPKTGDEAYSQKFKGRVTLTADKSTSTAYMELSSLTSEDTAVYYCTRFYSYTYWGQGTLVTVSS
VL: DVVMTQSPLSLPVTPGEPASISCRSEQSLVHSNGNTYLHWYLQKPGQSPQLLIYKVSNRFSGVPDRFSGSGSGTDFTLKISRVEAEDVGVYYCVQNGLFPPTFGQGTKLEIKR
For the molecule B15, in experiment [1], the Kd amounted to 3.02 nM, the fold of ka against ARD-103 came out at 2 fold, the koff was determined as 0.000324 s⁻¹ and the on-rate constant (kon) was determined as 107000 M⁻¹ s⁻¹. In addition, the EC50 in experiment [4] came to 0.1 nM. The fold change of ka against ARD-103 in experiment [5] was 2 fold. The EC50 in experiment [2] was determined as 0.094 nM.

B16: P3-A1 IgG variant of ARD-103 (antibody, V domains shown)
VH: QVQLVESGAEVKKPGASVKVSCKASGYTFTDYEMHWVRQAPGQGLEWMGALDPSTGDTAYSQKFKGRVTLTADKSTSTAYMELSSLTSEDTAVYYCTRFYSYTYWGQGTLVTVSS
VL: DVVMTQSPLSLPVTPGEPASISCRSSQSLVHWNGNTYLHWYLQKPGQSPQLLIYKVSNRFSGVPDRFSGSGSGTDFTLKISRVEAEDVGVYYCAQNTHVPPTFGQGTKLEIKR
B16: in experiment [1], the Kd came to 2.38 nM, the koff turned out to be 0.000196 s⁻¹ and the association rate constant (kon) was 82300 M⁻¹ s⁻¹.

B17: P1-D6 IgG variant of ARD-103 (antibody, V domains shown)
VH: QVQLVQSGAEVKNPGASVKVSCKASGYTFTDYEMHWVRQAPGQGLEWMGALDPFTGDTAYSQKFKGRVTLTADKSTSTAYMELSSLTSEDTAVYYCTRFYSYTYWGQGTLVTVSS
VL: DVVMTQSPLSLPVTPGEPASISCRSSQSLVHSNGNTYLHWYLQKPGQSPQLLIYKVSNRFSGVPDRFSGSGSGTDFTLKISRVEAEDVGVYYCLQNGYVPPTFGQGTKLEIKR
On to B17, for which, in experiment [1], the Kd came to 3.62 nM, the koff is 0.00033 s⁻¹ and the association rate constant (kon) was 91300 M⁻¹ s⁻¹. Further, the EC50 in experiment [4] was 0.1 nM. Besides, the concentration giving a half-maximal response (EC50) in experiment [2] is 0.11 nM.
